Data published in paper PMC6107290 (PLoS Pathogens, 2018).

Biological target: the molecule itself
Experiment: cryo-EM structure

B1: SARS-CoV S glycoprotein S2 subunit (from trypsin cleavage of the S ectodomain) (domain or fragment)
chain: STSQKSIVAYTMSLGADSSIAYSNNTIAIPTNFSISITTEVMPVSMAKTSVDCNMYICGDSTECANLLLQYGSFCTQLNRALSGIAAEQDRNTREVFAQVKQMYKTPTLKYFGGFNFSQILPDPLKPTKRSFIEDLLFNKVTLADAGFMKQYGECLGDINARDLICAQKFNGLTVLPPLLTDDMIAAYTAALVSGTATAGWTFGAGAALQIPFAMQMAYRFNGIGVTQNVLYENQKQIANQFNKAISQIQESLTTTSTALGKLQDVVNQNAQALNTLVKQLSSNFGAISSVLNDILSRLDKVEAEVQIDRLITGRLQSLQTYVTQQLIRAAEIRASANLAATKMSECVLGQSKRVDFCGKGYHLMSFPQAAPHGVVFLHVTYVPSQERNFTTAPAICHEGKAYFPREGVFVFNGTSWFITQRNFFSPQIITTDNTFVSGNCDVVIGIINNTVYDPLQPELDSFKEELDKYFKNHTSPDVDLGDISGINASVVNIQKEIDRLNEVAKNLNESLIDLQELGKYEQYIKWP
  stoichiometry N: 3
